{"source": "the supplement of paper PMC11246515", "assay": "total protein half-life in vivo (active degradation + dilution); higher = more stable protein", "key": {"[1]": {"conditions": "E. coli NCM3722 delta-clpP delta-lon delta-hslV, growth: N-lim chemostat, doubling time 6 h"}, "[2]": {"conditions": "E. coli NCM3722 delta-clpP, growth: N-lim chemostat, doubling time 6 h"}, "[3]": {"conditions": "E. coli NCM3722 delta-hslV, growth: N-lim chemostat, doubling time 6 h"}, "[4]": {"conditions": "E. coli NCM3722 delta-lon, growth: N-lim chemostat, doubling time 6 h"}, "[5]": {"conditions": "E. coli NCM3722 delta-smpB, growth: N-lim chemostat, doubling time 6 h"}, "[6]": {"conditions": "wild type E. coli NCM3722, growth: C-lim chemostat, doubling time 3 h"}, "[7]": {"conditions": "wild type E. coli NCM3722, growth: C-lim chemostat, doubling time 6 h"}, "[8]": {"conditions": "wild type E. coli NCM3722, growth: C-lim chemostat, doubling time 12 h"}, "[9]": {"conditions": "wild type E. coli NCM3722, growth: N-lim chemostat, doubling time 6 h"}, "[10]": {"conditions": "wild type E. coli NCM3722, growth: N-lim chemostat, doubling time 12 h"}, "[11]": {"conditions": "wild type E. coli NCM3722, growth: P-lim chemostat, doubling time 6 h"}, "[12]": {"conditions": "wild type E. coli NCM3722, growth: P-lim chemostat, doubling time 12 h"}}, "note": "± gives the standard deviation of the averaged measurements.", "data": [{"sequence": "MSGSNTAISRRRLLQGAGAMWLLSVSQVSLAAVSQVVAVRVWPASSYTRVTVESNRQLKYKQFALSNPERVVVDIEDVNLNSVLKGMAAQIRADDPFIKSARVGQFDPQTVRMVFELKQNVKPQLFALAPVAGFKERLVMDLYPANAQDMQDPLLALLEDYNKGDLEKQVPPAQSGPQPGKAGRDRPIVIMLDPGHGGEDSGAVGKYKTREKDVVLQIARRLRSLIEKEGNMKVYMTRNEDIFIPLQVRVAKAQKQRADLFVSIHADAFTSRQPSGSSVFALSTKGATSTAAKYLAQTQNASDLIGGVSKSGDRYVDHTMFDMVQSLTIADSLKFGKAVLNKLGKINKLHKNQVEQAGFAVLKAPDIPSILVETAFISNVEEERKLKTATFQQEVAESILAGIKAYFADGATLARRG", "values": [{"measurement": "total protein half-life in vivo", "setting": "[1]", "result": "4.83 ± 0.39", "unit": "h"}, {"measurement": "total protein half-life in vivo", "setting": "[2]", "result": "5.68 ± 1.5", "unit": "h"}, {"measurement": "total protein half-life in vivo", "setting": "[3]", "result": "5.1 ± 0.2", "unit": "h"}, {"measurement": "total protein half-life in vivo", "setting": "[4]", "result": "5.12 ± 0.18", "unit": "h"}, {"measurement": "total protein half-life in vivo", "setting": "[5]", "result": "4.18 ± 0.3", "unit": "h"}, {"measurement": "total protein half-life in vivo", "setting": "[6]", "result": "2.74 ± 0.23", "unit": "h"}, {"measurement": "total protein half-life in vivo", "setting": "[7]", "result": "4.852 ± 0.02", "unit": "h"}, {"measurement": "total protein half-life in vivo", "setting": "[8]", "result": "9.06 ± 0.98", "unit": "h"}, {"measurement": "total protein half-life in vivo", "setting": "[9]", "result": "5.19 ± 1.1", "unit": "h"}, {"measurement": "total protein half-life in vivo", "setting": "[10]", "result": "8.626 ± 0.061", "unit": "h"}, {"measurement": "total protein half-life in vivo", "setting": "[11]", "result": "5.29 ± 0.18", "unit": "h"}, {"measurement": "total protein half-life in vivo", "setting": "[12]", "result": "10.4 ± 0.28", "unit": "h"}]}, {"sequence": "MADKKLDTQLVNAGRSKKYTLGAVNSVIQRASSLVFDSVEAKKHATRNRANGELFYGRRGTLTHFSLQQAMCELEGGAGCVLFPCGAAAVANSILAFIEQGDHVLMTNTAYEPSQDFCSKILSKLGVTTSWFDPLIGADIVKHLQPNTKIVFLESPGSITMEVHDVPAIVAAVRSVVPDAIIMIDNTWAAGVLFKALDFGIDVSIQAATKYLVGHSDAMIGTAVCNARCWEQLRENAYLMGQMVDADTAYITSRGLRTLGVRLRQHHESSLKVAEWLAEHPQVARVNHPALPGSKGHEFWKRDFTGSSGLFSFVLKKKLNNEELANYLDNFSLFSMAYSWGGYESLILANQPEHIAAIRPQGEIDFSGTLIRLHIGLEDVDDLIADLDAGFARIV", "values": [{"measurement": "total protein half-life in vivo", "setting": "[1]", "result": "4.64 ± 0.42", "unit": "h"}, {"measurement": "total protein half-life in vivo", "setting": "[2]", "result": "4.43 ± 0.49", "unit": "h"}, {"measurement": "total protein half-life in vivo", "setting": "[3]", "result": "3.95 ± 0.2", "unit": "h"}, {"measurement": "total protein half-life in vivo", "setting": "[4]", "result": "6.18 ± 0.7", "unit": "h"}, {"measurement": "total protein half-life in vivo", "setting": "[5]", "result": "4.33 ± 0.2", "unit": "h"}, {"measurement": "total protein half-life in vivo", "setting": "[6]", "result": "3.36 ± 0.33", "unit": "h"}, {"measurement": "total protein half-life in vivo", "setting": "[7]", "result": "4.76 ± 1.1", "unit": "h"}, {"measurement": "total protein half-life in vivo", "setting": "[8]", "result": "9.28 ± 0.72", "unit": "h"}, {"measurement": "total protein half-life in vivo", "setting": "[9]", "result": "4.28 ± 0.085", "unit": "h"}, {"measurement": "total protein half-life in vivo", "setting": "[11]", "result": "6.1 ± 0.46", "unit": "h"}, {"measurement": "total protein half-life in vivo", "setting": "[12]", "result": "12.1 ± 1.6", "unit": "h"}]}, {"sequence": "MANFFIRRPIFAWVLAIILMMAGALAILQLPVAQYPTIAPPAVSVSANYPGADAQTVQDTVTQVIEQNMNGIDNLMYMSSTSDSAGSVTITLTFQSGTDPDIAQVQVQNKLQLATPLLPQEVQQQGISVEKSSSSYLMVAGFVSDNPGTTQDDISDYVASNVKDTLSRLNGVGDVQLFGAQYAMRIWLDADLLNKYKLTPVDVINQLKVQNDQIAAGQLGGTPALPGQQLNASIIAQTRFKNPEEFGKVTLRVNSDGSVVRLKDVARVELGGENYNVIARINGKPAAGLGIKLATGANALDTAKAIKAKLAELQPFFPQGMKVLYPYDTTPFVQLSIHEVVKTLFEAIMLVFLVMYLFLQNMRATLIPTIAVPVVLLGTFAILAAFGYSINTLTMFGMVLAIGLLVDDAIVVVENVERVMMEDKLPPKEATEKSMSQIQGALVGIAMVLSAVFIPMAFFGGSTGAIYRQFSITIVSAMALSVLVALILTPALCATLLKPVSAEHHENKGGFFGWFNTTFDHSVNHYTNSVGKILGSTGRYLLIYALIVAGMVVLFLRLPSSFLPEEDQGVFLTMIQLPAGATQERTQKVLDQVTDYYLKNEKANVESVFTVNGFSFSGQAQNAGMAFVSLKPWEERNGDENSAEAVIHRAKMELGKIRDGFVIPFNMPAIVELGTATGFDFELIDQAGLGHDALTQARNQLLGMAAQHPASLVSVRPNGLEDTAQFKLEVDQEKAQALGVSLSDINQTISTALGGTYVNDFIDRGRVKKLYVQADAKFRMLPEDVDKLYVRSANGEMVPFSAFTTSHWVYGSPRLERYNGLPSMEIQGEAAPGTSSGDAMALMENLASKLPAGIGYDWTGMSYQERLSGNQAPALVAISFVVVFLCLAALYESWSIPVSVMLVVPLGIVGVLLAATLFNQKNDVYFMVGLLTTIGLSAKNAILIVEFAKDLMEKEGKGVVEATLMAVRMRLRPILMTSLAFILGVLPLAISNGAGSGAQNAVGIGVMGGMVSATLLAIFFVPVFFVVIRRCFKG", "values": [{"measurement": "total protein half-life in vivo", "setting": "[3]", "result": 5.63, "unit": "h"}, {"measurement": "total protein half-life in vivo", "setting": "[10]", "result": 8.2, "unit": "h"}]}, {"sequence": "MKSGRFIGVMSGTSLDGVDVVLATIDEHRVAQLASLSWPIPVSLKQAVLDICQGQQLTLSQFGQLDTQLGQLFADAVNALLKEQNLQARDIVAIGCHGQTVWHEPTGVAPHTLQIGDNNQIVARTGITVVGDFRRRDIALGGQGAPLVPAFHHALLAHPTERRMVLNIGGIANLSLLIPGQPVGGYDTGPGNMLMDAWIWRQAGKPYDKDAEWARAGKVILPLLQNMLSDPYFSQPAPKSTGREYFNYGWLERHLRHFPGVDPRDVQATLAELTAVTISEQVLLSGGCERLMVCGGGSRNPLLMARLAALLPGTEVTTTDAVGISGDDMEALAFAWLAWRTLAGLPGNLPSVTGASQETVLGAIFPANP", "values": [{"measurement": "total protein half-life in vivo", "setting": "[1]", "result": "4.58 ± 0.37", "unit": "h"}, {"measurement": "total protein half-life in vivo", "setting": "[2]", "result": "4.32 ± 0.2", "unit": "h"}, {"measurement": "total protein half-life in vivo", "setting": "[3]", "result": "3.98 ± 0.065", "unit": "h"}, {"measurement": "total protein half-life in vivo", "setting": "[4]", "result": "5.78 ± 1.9", "unit": "h"}, {"measurement": "total protein half-life in vivo", "setting": "[5]", "result": "3.88 ± 0.11", "unit": "h"}, {"measurement": "total protein half-life in vivo", "setting": "[6]", "result": "3.34 ± 0.54", "unit": "h"}, {"measurement": "total protein half-life in vivo", "setting": "[7]", "result": "5.7 ± 0.078", "unit": "h"}, {"measurement": "total protein half-life in vivo", "setting": "[8]", "result": "9.74 ± 0.51", "unit": "h"}, {"measurement": "total protein half-life in vivo", "setting": "[9]", "result": "4.03 ± 0.26", "unit": "h"}, {"measurement": "total protein half-life in vivo", "setting": "[10]", "result": "7.18 ± 0.17", "unit": "h"}, {"measurement": "total protein half-life in vivo", "setting": "[11]", "result": "5.87 ± 0.47", "unit": "h"}, {"measurement": "total protein half-life in vivo", "setting": "[12]", "result": "12.9 ± 0.95", "unit": "h"}]}, {"sequence": "MDRDQTNSSLFNDDPVLHATWLYYQEGKSQTEVAAIMGVSRVTVVKYLQTARENGLVHINLDVNVFGSIDAALQIRDKFNLQRVIIVPDGEHAGKRDDTKLMRTRLSRAGGMYLNQVIENGDVLGVAWGRTIHQMSKTMTPKSCKNVTVIQMLGSMPSQPDLTIIESSSQIAYKLSGRVASLHVPAVVSSARLAMELQAEPIIRSNFDVLTRCTKAFFVVGNALDENPLIRVGVLNKKEMQTYRDLGAVGVICGRFYDKEGMPVVADVDQRILGISLAQLRQIERKIFLAGGERGYDATLGALLGGYVTDLIVDEGTAEFLLACELPH", "values": [{"measurement": "total protein half-life in vivo", "setting": "[1]", "result": "7.27 ± 0.75", "unit": "h"}, {"measurement": "total protein half-life in vivo", "setting": "[2]", "result": "6.31 ± 0.21", "unit": "h"}, {"measurement": "total protein half-life in vivo", "setting": "[3]", "result": "6.85 ± 0.93", "unit": "h"}, {"measurement": "total protein half-life in vivo", "setting": "[4]", "result": "6.37 ± 0.93", "unit": "h"}, {"measurement": "total protein half-life in vivo", "setting": "[5]", "result": "5.92 ± 0.29", "unit": "h"}, {"measurement": "total protein half-life in vivo", "setting": "[6]", "result": "3.03 ± 0.26", "unit": "h"}, {"measurement": "total protein half-life in vivo", "setting": "[7]", "result": "6.27 ± 0.17", "unit": "h"}, {"measurement": "total protein half-life in vivo", "setting": "[8]", "result": "11.5 ± 2.3", "unit": "h"}, {"measurement": "total protein half-life in vivo", "setting": "[9]", "result": "5.82 ± 0.46", "unit": "h"}, {"measurement": "total protein half-life in vivo", "setting": "[10]", "result": "11.9 ± 0.26", "unit": "h"}, {"measurement": "total protein half-life in vivo", "setting": "[11]", "result": "5.93 ± 0.12", "unit": "h"}, {"measurement": "total protein half-life in vivo", "setting": "[12]", "result": "12 ± 0.53", "unit": "h"}]}]}
